Assay results taken from publication PMC2770544, “Conformational changes and loose packing promote E. coli Tryptophanase cold lability” (BMC Structural Biology, 2009).

B1: wild-type E. coli tryptophanase, apo form (enzyme)
chain: not shown
notes: tryptophanase (Trpase, EC 4.1.99.1), E. coli, wild type, without PLP; also called wt apo; apo wt Trpase; source: E. coli SVS 370 cells containing the tnaA gene on plasmids, purified; apo enzyme by overnight dialysis of the holo enzyme against 0.1 M sodium phosphate-ethylenediamine buffer, pH 8.0, 4°C
B2: E. coli tryptophanase W330F mutant, apo form (enzyme)
chain: not shown
notes: tryptophanase (Trpase), E. coli, W330F mutant, without PLP; also called W330F apo; source: E. coli SVS 370 cells containing the tnaA gene with the site-directed mutation, purified; apo enzyme by overnight dialysis of the holo enzyme
B3: wild-type E. coli tryptophanase, holo form (enzyme)
chain: not shown
modifications: pyridoxal 5'-phosphate (PLP) covalently bound to Lys270
notes: tryptophanase (Trpase, EC 4.1.99.1), E. coli, wild type, ~52 kD per monomer; also called wt holo; wt Trpase; source: E. coli SVS 370 cells containing the tnaA gene on plasmids, purified (DEAE anion exchange, Sephacryl S-300-HR)
B4: E. coli tryptophanase Y74F mutant, holo form (enzyme)
chain: MENFKHLPEPFRIRVIEPVKRTTRAYREEAIIKSGMNPFLLDSEDVFIDLLTDSGTGAVTQSMQAAMMRGDEAFSGSRSYYALAESVKNIFGYQYTIPTHQGRGAEQIYIPVLIKKREQEKGLDRSKMVAFSNYFFDTTQGHSQINGCTVRNVYIKEAFDTGVRYDFKGNFDLEGLERGIEEVGPNNVPYIVATITSNSAGGQPVSLANLKAMYSIAKKYDIPVVMDSARFAENAYFIKQREAEYKDWTIEQITRETYKYADMLAMSAKKDAMVPMGGLLCMKDDSFFDVYTECRTLCVVQEGFPTYGGLEGGAMERLAVGLYDGMNLDWLAYRIAQVQYLVDGLEEIGVVCQQAGGHAAFVDAGKLLPHIPADQFPAQALACELYKVAGIRAVEIGSFLLGRDPKTGKQLPCPAELLRLTIPRATYTQTHMDFIIEAFKHVKENAANIKGLTFTYEPKVLRHFTAKLKEV
modifications: pyridoxal 5'-phosphate (PLP) covalently bound to Lys270
notes: tryptophanase (Trpase), E. coli, Y74F mutant; the sample called 'Y74F holo' was run with 0.1 mM PLP; also called Y74F holo; source: E. coli BL21(DE3), pET17b plasmid, purified
B5: E. coli tryptophanase Y74F mutant, apo form (enzyme)
chain: MENFKHLPEPFRIRVIEPVKRTTRAYREEAIIKSGMNPFLLDSEDVFIDLLTDSGTGAVTQSMQAAMMRGDEAFSGSRSYYALAESVKNIFGYQYTIPTHQGRGAEQIYIPVLIKKREQEKGLDRSKMVAFSNYFFDTTQGHSQINGCTVRNVYIKEAFDTGVRYDFKGNFDLEGLERGIEEVGPNNVPYIVATITSNSAGGQPVSLANLKAMYSIAKKYDIPVVMDSARFAENAYFIKQREAEYKDWTIEQITRETYKYADMLAMSAKKDAMVPMGGLLCMKDDSFFDVYTECRTLCVVQEGFPTYGGLEGGAMERLAVGLYDGMNLDWLAYRIAQVQYLVDGLEEIGVVCQQAGGHAAFVDAGKLLPHIPADQFPAQALACELYKVAGIRAVEIGSFLLGRDPKTGKQLPCPAELLRLTIPRATYTQTHMDFIIEAFKHVKENAANIKGLTFTYEPKVLRHFTAKLKEV
notes: tryptophanase (Trpase), E. coli, Y74F mutant, without PLP; one monomer in the asymmetric unit of the crystal, the tetramer arises by symmetry; also called Y74F apo; apo Y74F; source: E. coli BL21(DE3), pET17b plasmid, purified; apo enzyme by overnight dialysis of the holo enzyme
B6: E. coli tryptophanase C298S mutant, apo form (enzyme)
chain: MENFKHLPEPFRIRVIEPVKRTTRAYREEAIIKSGMNPFLLDSEDVFIDLLTDSGTGAVTQSMQAAMMRGDEAYSGSRSYYALAESVKNIFGYQYTIPTHQGRGAEQIYIPVLIKKREQEKGLDRSKMVAFSNYFFDTTQGHSQINGCTVRNVYIKEAFDTGVRYDFKGNFDLEGLERGIEEVGPNNVPYIVATITSNSAGGQPVSLANLKAMYSIAKKYDIPVVMDSARFAENAYFIKQREAEYKDWTIEQITRETYKYADMLAMSAKKDAMVPMGGLLCMKDDSFFDVYTECRTLSVVQEGFPTYGGLEGGAMERLAVGLYDGMNLDWLAYRIAQVQYLVDGLEEIGVVCQQAGGHAAFVDAGKLLPHIPADQFPAQALACELYKVAGIRAVEIGSFLLGRDPKTGKQLPCPAELLRLTIPRATYTQTHMDFIIEAFKHVKENAANIKGLTFTYEPKVLRHFTAKLKEV
notes: tryptophanase (Trpase), E. coli, C298S mutant, without PLP; one monomer in the asymmetric unit of the crystal, the tetramer arises by symmetry; also called C298S apo; apo C298S; source: E. coli SVS 370 cells containing the tnaA gene with the site-directed mutation, purified; apo enzyme by overnight dialysis of the holo enzyme
B7: E. coli tryptophanase C298S mutant, holo form (enzyme)
chain: MENFKHLPEPFRIRVIEPVKRTTRAYREEAIIKSGMNPFLLDSEDVFIDLLTDSGTGAVTQSMQAAMMRGDEAYSGSRSYYALAESVKNIFGYQYTIPTHQGRGAEQIYIPVLIKKREQEKGLDRSKMVAFSNYFFDTTQGHSQINGCTVRNVYIKEAFDTGVRYDFKGNFDLEGLERGIEEVGPNNVPYIVATITSNSAGGQPVSLANLKAMYSIAKKYDIPVVMDSARFAENAYFIKQREAEYKDWTIEQITRETYKYADMLAMSAKKDAMVPMGGLLCMKDDSFFDVYTECRTLSVVQEGFPTYGGLEGGAMERLAVGLYDGMNLDWLAYRIAQVQYLVDGLEEIGVVCQQAGGHAAFVDAGKLLPHIPADQFPAQALACELYKVAGIRAVEIGSFLLGRDPKTGKQLPCPAELLRLTIPRATYTQTHMDFIIEAFKHVKENAANIKGLTFTYEPKVLRHFTAKLKEV
modifications: pyridoxal 5'-phosphate (PLP) covalently bound to Lys270
notes: tryptophanase (Trpase), E. coli, C298S mutant; also called C298S holo; source: E. coli SVS 370 cells containing the tnaA gene with the site-directed mutation, purified as the wild type
B8: E. coli tryptophanase W330F mutant, holo form (enzyme)
chain: not shown
modifications: pyridoxal 5'-phosphate (PLP) covalently bound to Lys270
notes: tryptophanase (Trpase), E. coli, W330F mutant; also called W330F holo; source: E. coli SVS 370 cells containing the tnaA gene with the site-directed mutation, purified as the wild type

Experiments:
[1] = target: the molecule itself; assay: SEC; HPLC gel filtration (BIOSEP-SEC S-3000) at 2°C after cooling (20 h; P. vulgaris 24 h); apo enzymes, same Tricine-KCl buffer without PLP; tetramer to dimers (P. vulgaris: also to monomers)
[2] = target: the molecule itself; assay: SEC; HPLC gel filtration (BIOSEP-SEC S-3000) at 25°C; apo enzymes, same Tricine-KCl buffer without PLP; tetramer to dimers (P. vulgaris: also to monomers)
[3] = target: the molecule itself; assay: SEC; HPLC gel filtration (BIOSEP-SEC S-3000) at 25°C; holo enzymes, 1 mg/ml, Tricine-KCl buffer pH 7.5 with PLP (0.1 mM by the table's footnote), 2 mM EDTA, 5 mM 2-mercaptoethanol; tetramer to dimers
[4] = target: the molecule itself; assay: SEC; time profile of cold dissociation at 2°C followed by HPLC gel filtration; Tricine-KCl buffer pH 7.5, protein 1.0 mg/ml; tetramer to dimers
[5] = target: the molecule itself; assay: SEC; HPLC gel filtration (BIOSEP-SEC S-3000) at 25°C; holo enzymes, 1 mg/ml, Tricine-KCl buffer pH 7.5 with PLP (0.1 mM by the table's footnote), 2 mM EDTA, 5 mM 2-mercaptoethanol; tetramer to dimers; remark: listed apart in the source
[6] = target: the molecule itself; assay: SEC; HPLC gel filtration (BIOSEP-SEC S-3000) at 2°C after 20 h at 2°C; holo enzymes, 1 mg/ml, Tricine-KCl buffer pH 7.5 with PLP (0.1 mM by the table's footnote), 2 mM EDTA, 5 mM 2-mercaptoethanol; tetramer to dimers

Protein | degree of dissociation to dimers (%) [1] [%] | degree of dissociation to dimers (%) [2] [%] | degree of dissociation to dimers (%) [3] [%] | initial rate constant of cold dissociation (tetramer to dimers) [4] [min⁻¹] | stoichiometry N [5] | degree of dissociation to dimers (%) [6] [%]
B1 | 87 | 70 | – | – | – | –
B2 | 90 | 69 | – | – | – | –
B3 | – | – | < 3 | 0.00042 | 4 | 20
B4 | – | – | 17 | – | – | 66
B5 | 83 | 80 | – | – | – | –
B6 | 88 | > 80 | – | – | – | –
B7 | – | – | < 5 | 0.0032 | 4 | 64
B8 | – | – | < 5 | 0.00084 | 4 | 61
